We go through seven molecules from article doi:10.1101/2020.10.15.341636 (bioRxiv, 2020).

The target of experiment [1] is T1, SARS-CoV-2 prefusion S ectodomain (BEI NR52394) (SARS-CoV-2 Wuhan-Hu-1, UniProt P0DTC2, stabilised). Nature of the experiment: BLI. On the technique in general: In BLI a coated tip is dipped into the sample, and binding shifts an interference pattern.
Experiment [2] has as its target T1, SARS-CoV-2 prefusion S ectodomain (BEI …). Nature of the experiment: cryo-EM structure.
Experiment [3] has the same target. Nature of the experiment: cell-based or functional assay.

B1: mAb 52 IgG (antibody, V domains shown)
VH: QVQLVQSGAEVKKPGSSVKVSCKASGYTFTSYGISWVRQAPGQGLEWMGGIIPMFGTTNYAQKFQGRVTITADKSTSTAYMELSSLRSEDTAVYYCARDRGDTIDYWGQGTLVTVSS
VL: DIQMTQSPSSLSASVGDRVTITCRASQGISNNLNWYQQKPGKAPKLLIYAASSLESGVPSRFSGSGSGTDFTLTISSLQPEDFATYYCQQGNGFPLTFGPGTKVDIK
As for B1, the binding result in experiment [1] was “binds”.

B2: 52 Multabody (other)
VH: QVQLVQSGAEVKKPGSSVKVSCKASGYTFTSYGISWVRQAPGQGLEWMGGIIPMFGTTNYAQKFQGRVTITADKSTSTAYMELSSLRSEDTAVYYCARDRGDTIDYWGQGTLVTVSS
VL: DIQMTQSPSSLSASVGDRVTITCRASQGISNNLNWYQQKPGKAPKLLIYAASSLESGVPSRFSGSGSGTDFTLTISSLQPEDFATYYCQQGNGFPLTFGPGTKVDIK
As to B2, the binding result in experiment [1] is recorded as “binds”.

B3: mAb 236 IgG (antibody, V domains shown)
VH: QVQLVQSGAEVKKPGASVKVSCKASGGTFTSYGINWVRQAPGQGLEWMGWMNPNSGNTGYAQKFQGRVTMTRDTSTSTVYMELSSLRSEDTAVYYCASRGIQLLPRGMDVWGQGTTVTVSS
VL: not shown
Regarding B3, in experiment [1], the binding result was “binds”.

B4: mAb 324 IgG (antibody, V domains shown)
VH: QVQLVQSGAEVKKPGASVKVSCKASGGTFNNYGISWVRQAPGQGLEWMGWMNPNSGNTGYAQKFQGRVTMTRDTSTSTVYMELSSLRSEDTAVYYCARVGDYGDYIVSPFDLWGRGTLVTVSS
VL: DIQMTQSPSSLSASVGDRVTITCRASQSITTYLNWYQQKPGKAPKLLIYDASNLETGVPSRFSGSGSGTDFTLTISSLQPEDFATYYCQQSYSTPPTFGQGTKVEIK
For the molecule B4, the binding result in experiment [1] is recorded as “binds”.

B5: Fab 324 (Fab, V domains shown)
VH: QVQLVQSGAEVKKPGASVKVSCKASGGTFNNYGISWVRQAPGQGLEWMGWMNPNSGNTGYAQKFQGRVTMTRDTSTSTVYMELSSLRSEDTAVYYCARVGDYGDYIVSPFDLWGRGTLVTVSS
VL: DIQMTQSPSSLSASVGDRVTITCRASQSITTYLNWYQQKPGKAPKLLIYDASNLETGVPSRFSGSGSGTDFTLTISSLQPEDFATYYCQQSYSTPPTFGQGTKVEIK
Consider B5, for which the binding result in experiment [2] was “binds”.

B6: 324 Multabody (other)
VH: QVQLVQSGAEVKKPGASVKVSCKASGGTFNNYGISWVRQAPGQGLEWMGWMNPNSGNTGYAQKFQGRVTMTRDTSTSTVYMELSSLRSEDTAVYYCARVGDYGDYIVSPFDLWGRGTLVTVSS
VL: DIQMTQSPSSLSASVGDRVTITCRASQSITTYLNWYQQKPGKAPKLLIYDASNLETGVPSRFSGSGSGTDFTLTISSLQPEDFATYYCQQSYSTPPTFGQGTKVEIK
As to B6, in experiment [1], the binding result is recorded as “binds”.

B7: mAb 298 IgG (antibody, V domains shown)
VH: QVQLVQSGAEVKKPGASVKVSCKASGGTFSTYGISWVRQAPGQGLEWMGWISPNSGGTDLAQKFQGRVTMTRDTSTSTVYMELSSLRSEDTAVYYCASDPRDDIAGGYWGQGTLVTVSS
VL: not shown
On to B7, for which the “IC50 of neutralization of SARS-CoV-2 pseudovirus (PsV)” value in experiment [3] is around 30 mg/L.
